Data reported in patent US20220411519A1 (SHANGHAI NOVAMAB BIOPHARMACEUTICALS, published 2022).

T1: mouse IL-4R (mouse, UniProt P16382 26-233, limits assumed)
T1 sequence (looked up): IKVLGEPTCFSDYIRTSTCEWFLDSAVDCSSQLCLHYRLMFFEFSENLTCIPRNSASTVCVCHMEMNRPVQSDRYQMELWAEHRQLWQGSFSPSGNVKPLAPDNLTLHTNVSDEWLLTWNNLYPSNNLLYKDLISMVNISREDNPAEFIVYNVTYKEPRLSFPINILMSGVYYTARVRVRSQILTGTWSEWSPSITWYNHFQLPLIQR

B1: IL-4R single-domain antibody Nb103 (VHH)
VHH: QVQLQESGGGSVQAGGSLRVSCAASGSTSYRYCMAWFRQAPGKEREAVASIRPRSGRAYYADSVKGRFTISLDNAKNTLYLQMNSLKPEDTAMYYCAASDNDGNCQDYWGKGTQVTVSS
notes: also called candidate single-domain antibody Nb103; IL-4Ra Nb103 antibody; not shown: tag(s) from the pMECS phage vector
B2: humanized tetravalent antibody tet-huNb103 (Fc fusion)
chain: EVQLVESGGGLVQPGGSLRLSCAASGSTSYRYCMAWFRQAPGKGLEAVASIRPRSGRAYYADSVKGRFTISRDNSKNTLYLQMNSLRAEDTAVYYCAASDNDGNCQDYWGKGTLVTVSSGGGGSGGGSEVQLVESGGGLVQPGGSLRLSCAASGSTSYRYCMAWFRQAPGKGLEAVASIRPRSGRAYYADSVKGRFTISRDNSKNTLYLQMNSLRAEDTAVYYCAASDNDGNCQDYWGKGTLVTVSSESKYGPPCPPCPAPEFLGGPSVFLFPPKPKDTLMISRTPEVTCVVVDVSQEDPEVQFNWYVDGVEVHNAKTKPREEQFNSTYRVVSVLTVLHQDWLNGKEYKCKVSNKGLPSSIEKTISKAKGQPREPQVYTLPPSEEMTKNQVSLTCLVKGFYPSDIAVEWESNGQPENNYKTTPPVLDSDGSFFLYSRLTVDKSRWQEGNVFSCSVMHEALHNHYTQKSLSLSLG
B3: humanized antibody huNb103 (humanized single-domain antibody fused with Fc) (Fc fusion)
chain: EVQLVESGGGLVQPGGSLRLSCAASGSTSYRYCMAWFRQAPGKGLEAVASIRPRSGRAYYADSVKGRFTISRDNSKNTLYLQMNSLRAEDTAVYYCAASDNDGNCQDYWGKGTLVTVSSESKYGPPCPPCPAPEFLGGPSVFLFPPKPKDTLMISRTPEVTCVVVDVSQEDPEVQFNWYVDGVEVHNAKTKPREEQFNSTYRVVSVLTVLHQDWLNGKEYKCKVSNKGLPSSIEKTISKAKGQPREPQVYTLPPSEEMTKNQVSLTCLVKGFYPSDIAVEWESNGQPENNYKTTPPVLDSDGSFFLYSRLTVDKSRWQEGNVFSCSVMHEALHNHYTQKSLSLSLG
notes: called bivalent, so two chains; expressed in HEK293F; also called humanized bivalent antibody; human bivalent antibody
B4: Dupilumab (antibody, V domains shown)
VH: EVQLVESGGGLEQPGGSLRLSCAGSGFTFRDYAMTWVRQAPGKGLEWVSSISGSGGNTYYADSVKGRFTISRDNSKNTLYLQMNSLRAEDTAVYYCAKDRLSITIRPRYYGLDVWGQGTTVTVSS
VL: DIVMTQSPLSLPVTPGEPASISCRSSQSLLYSIGYNYLDWYLQKSGQSPQLLIYLGSNRASGVPDRFSGSGSGTDFTLKISRVEAEDVGFYYCMQALQTPYTFGQGTKLEIKR

Key:
rhesus monkeys IL-4R = rhesus monkeys IL-4R (rhesus monkey, UniProt F6RUR0 26-232); test: ELISA, coated IL-4R, same method as for FIG. 6
Method: (§1) ELISA was used to verify whether the candidate antibody could cross-react with IL-4R proteins of different species, and the method was as follows: (1) 1 ug/mL human IL-4R, mouse IL-4R and cynomolgus monkey IL-4R were added into the plate and coated overnight at 4° C. with 100 uL/well. (2) After washing with PBST for 5 times, 300 uL 1% BSA was added to each well and sealed for 2 hours at room temperature. (3) After washing with PBST for 5 times, 100 uL of 2 ug/mL antibody to be tested was added and incubated at 37° C. for 1 hour. (4) After washing with PBST for 5 times, 100 uL diluted anti-HA antibody (diluted at 1:2000) was added and incubated at 37° C. for 1 hour. (4) After washing with PBST for 5 times, 100 uL diluted anti-mouse IgG antibody (diluted at 1:2000) was added and incubated at 37° C. for 30 minutes. (5) After washing with PBST for 5 times, 100 uL PA chromogenic solution was added and developing at 37° C. for 10 minutes, and the absorption value was measured at 405 nm wavelength with a microplate reader. The results are shown in FIG. 6, the candidate antibody Nb103 can recognize the human IL-4R, but not mouse and cynomolgus monkey IL-4R.
ELISA was used again to verify whether the candidate antibody could cross-react with IL-4R protein of different monkey types. The detection method was the same as above. […]

[1] = molecular target: T2, human IL-4R on cells (293F/IL-4R cells; HEK293F cells with high IL-4Rα expression) (human, UniProt P24394 26-825); test: cell-based or functional assay
[2] = molecular target: T2, human IL-4R on cells (293F/IL-4R cells; …); test: flow cytometry competition: antibody titrated against 5 ug/mL IL-4-biotin on 293F/IL-4R cells, SA-PE
Method: (1) A certain number of 293F/IL-4R cells that were transitioned for 48 h were centrifuged at 1000 rpm for 5 min, the supernatant was discarded, the cells were re-suspended and washed with PBS for once, and counted. The cells were divided into 96-well plates at 100 ul/well, and then centrifuged at 3000 rpm at 4° C. for 4 min. (2) The supernatant was aspirated, and the single-domain antibody with different sequences in gradient diluted in example 1 was added (two-fold gradient dilution starting from 40 ug/mL). 50 uL was added to each well, and then 50 uL of 5 ug/mL IL-4-biotin was added to mix, and incubated at 4° C. for 20 min. (3) Centrifugation was performed at 3000 rpm at 4° C. for 4 min, and the supernatant was discarded. 200 uL PBS was added to each well to wash the cells, and the supernatant was discarded by centrifugation again. Diluted SA-PE staining solution was added and incubated at 4° C. for 20 min. (4) Centrifugation was performed at 3000 rpm at 4° C. for 4 min, and the supernatant was discarded. 200 uL PBS was added to each well to wash the cells, and the supernatant was discarded by centrifugation again. 200 uL PBS was added to re-suspend the cells, and the PE signal of the samples was detected by flow cytometry.

cynomolgus monkey IL-4R = cynomolgus monkey IL-4R (cynomolgus monkey, UniProt A0A2K5V580 33-239); test: ELISA, IL-4R coated at 1 ug/mL, anti-HA detection
Method: as §1

mouse IL-4R = molecular target: T1, mouse IL-4R; test: ELISA, IL-4R coated at 1 ug/mL, anti-HA detection
Method: as §1

[3] = molecular target: T2, human IL-4R on cells (293F/IL-4R cells; …); test: flow cytometry on HEK293F cells with high IL-4Rα expression, anti-human Fc-FITC
Method: (1) HEK293F cells with high IL-4Rα expression were collected, centrifuged at 1000 rpm for 5 min, and the supernatant was discarded. The cells were re-suspended with 5 mL PBS and centrifuged at 1000 rpm for 5 min, and the supernatant was discarded. Then the cells were re-suspended with 2 mL PBS, and counted. The cells were divided into 96-well plates with 3×10⁵ cells per well; (2) Humanized antibody huNb103 (amino acid sequence refers to SEQ ID NO:16) and Dupilumab were diluted by 2-fold gradient dilution (40 ug/mL, 20 ug/mL, 10 ug/mL, 5 ug/mL, 2.5 ug/mL, 1.25 ug/mL, 0.625 ug/mL, 0.313 ug/mL, 0.156 ug/mL, 0.078 ug/mL). The cells in the 96-well plate were resuspended with the diluted antibody and incubated at 4° C. for 20 min. (3) Centrifugation was performed at 3000 rpm at 4° C. for 4 min, and 200 ul PBS was added to each well. After resuspension, centrifugation was performed at 3000 rpm at 4° C. for 4 min. (4) Diluted anti-human Fc-FITC antibody (diluted at 1:200) was added and incubated at 4° C. for 20 min. (5) Centrifugation was performed at 3000 rpm at 4° C. for 4 min, and the supernatant was discarded, 200 uL PBS was added into each well to wash cells for two times, then 200 uL PBS was added to re-suspend the cells. The cells were transferred to flow tube to detect FITC signal of each sample via flow cytometry.

[4] = molecular target: T2, human IL-4R on cells (293F/IL-4R cells; …); test: flow cytometry blocking of IL-4/IL-4R on HEK293F cells with high IL-4Rα expression, SA-PE
Method: (1) HEK293F cells with high IL-4Rα expression were collected, centrifuged at 1000 rpm for 5 min, and the supernatant was discarded. The cells were re-suspended with 5 mL PBS and centrifuged at 1000 rpm for 5 min, and the supernatant was discarded. Then the cells were re-suspended with 2 mL PBS, and counted. The cells were divided into 96-well plates with 3×10⁵ cells per well. (2) Humanized antibody huNb103 (amino acid sequence refers to SEQ ID NO:16) and Dupilumab were diluted by 2-fold gradient dilution (40 ug/mL, 20 ug/mL, 10 ug/mL, 5 ug/mL, 2.5 ug/mL, 1.25 ug/mL, 0.625 ug/mL, 0.313 ug/mL, 0.156 ug/mL, 0.078 ug/mL). The cells in the 96-well plate were resuspended with the diluted antibody and incubated at 4° C. for 20 min. (3) Centrifugation was performed at 3000 rpm at 4° C. for 4 min, and 200 ul PBS was added to each well. After resuspension, centrifugation was performed at 3000 rpm at 4° C. for 4 min. (4) Diluted SA-PE staining solution (diluted at 0.3:100) was added and incubated at 4° C. for 20 min. (5) Centrifugation was performed at 3000 rpm at 4° C. for 4 min, and the supernatant was discarded, 200 uL PBS was added into each well to wash cells for two times, then 200 uL PBS was added again to re-suspend the cells. The cells were transferred to flow tube to detect PE signal of each sample via flow cytometry.

Row | Binder | binding result (rhesus monkeys IL-4R) | inhibition of TF-1 cell proliferation induced by IL-4 (CCK8, OD450) [1] | inhibition of TF-1 cell proliferation induced by IL-13 (CCK8, OD450) [1] | IC50 [2] | binding result (cynomolgus monkey IL-4R) | binding result (mouse IL-4R) | EC50 [3] | IC50 [4]
1 | B1 | no binding | 0.149 µg/mL | 0.066 µg/mL | 0.274 µg/mL | no binding (tested: 2 ug/mL antibody) | no binding (tested: 2 ug/mL antibody) |  | 
2 | B2 |  | 0.02 µg/mL | 0.026 µg/mL |  |  |  |  | 
3 | B3 |  | 0.032 µg/mL | 0.059 µg/mL |  |  |  | 0.286 µg/mL | 0.474 µg/mL
4 | B4 |  |  |  | 0.511 µg/mL |  |  | 0.36 µg/mL | 1.13 µg/mL
